Experimental data published in US20100285583A1, “COMPOUNDS AND METHODS FOR INHIBITING PLATELET AGGREGATION” (priority 2009, published 2010).

Experiments:
[1] = tested on: platelet surface P-selectin; assay: Flow cytometry, platelet surface P-selectin; format: cell-based, human; conditions: for inhibition of sulfatide induced activation (surface P-selectin): ADP 30 μM, sulfatide liposomes 50 μg/mL
Protocol: (§1) Washed platelets (2.5×10^5 platelets/μL) were kept unactivated or either activated with ADP (30 μM) or TRAP (10 μM). Both unactivated and activated platelets were incubated for 10 min at 23° C. with liposomes (50 μg/mL) either without (liposomes control) or with sulfatides, and N-PTB constructs (1 μM). Reactions were fixed with 1% formalin and incubated with PE- labeled CD62p anti-P-selectin (BioLegend) or FITC-labeled PAC-1 anti-integrin receptor (BD Transduction) antibodies. Bound antibodies were quantified using a FacsAria flow cytometer.
Once present, P-selectin is able to interact with sulfatides which triggers an internal phosphorylation pathway thought to be mediated by p38 (FIG. 12A) (Merten 2005). This cascade results in further de-granulation and an increase in surface P-selectin (Merten 2005). To monitor the de-granulation of platelets, two activation markers were evaluated using fluorescent antibodies specific for P-selectin and the αIIbβ3 integrin. Marker surface expression was quantified using fluorescence-activated cell sorting (FACS) analysis, and measuring the median fluorescent signal of 10,000 platelets. The median signal was used as our reference to quantify the data set as median values are less affected by the wide range of platelet signals and is therefore more representative of the population. When platelets were stimulated with ADP (30 μM) they show increases in both surface P-selecting and αIIbβ3 integrin expression. In the presence of sulfatides (50 μg/mL), in the form of enriched liposomes, the levels of P-selectin and αIIbβ3 integrin were further increased to about 20-25 fold their un-stimulated levels (FIG. 12B). […] The levels of P-selectin and αIIbβ3 integrin were measured among several different individuals and the levels varied greatly between them; however; consistently, sulfatides induced a ˜20 fold increase over un-stimulated platelets and a ˜10 fold increase over ADP stimulated platelets.

[2] = tested on: platelet surface αIIbβ3 integrin; assay: Flow cytometry, platelet surface αIIbβ3 integrin; format: cell-based, human; conditions: ADP 30 μM, sulfatide liposomes 50 μg/mL
Protocol: as §1
Once present, P-selectin is able to interact with sulfatides which triggers an internal phosphorylation pathway thought to be mediated by p38 (FIG. 12A) (Merten 2005). This cascade results in further de-granulation and an increase in surface P-selectin (Merten 2005). To monitor the de-granulation of platelets, two activation markers were evaluated using fluorescent antibodies specific for P-selectin and the αIIbβ3 integrin. Marker surface expression was quantified using fluorescence-activated cell sorting (FACS) analysis, and measuring the median fluorescent signal of 10,000 platelets. The median signal was used as our reference to quantify the data set as median values are less affected by the wide range of platelet signals and is therefore more representative of the population. […]

Washed platelets = assay: Platelet aggregation under flow assay (microfluidics channel); format: cell-based, human; conditions: 10 μM, with sulfatide liposomes, shear rate 70 s^−1
Protocol: The microfluidic device consisted in a simple straight channel 500 μm wide, 50 μm deep and 3.62 cm long. A silicon master stamp was fabricated on a <100> silicon substrate following a previously described process (Ross et al. Ann. Rev. Med. 1987, 38:71-79). Flow was driven using a micro-syringe pump (Cole-Parmer) with a 1 mL syringe connected to the channel inlet by 30 cm of Cole-Parmer gauge 20 Teflon tubing. After priming the system with the sample, the pump was set to 0.05 mL/h (equivalent to an average velocity of 0.55 mm/sec in the channel), which is in the range of in vivo blood velocity (0.1-1.5 mm/sec (9)) and causes a shear rate of 70 sec−1. This flow rate was maintained for 1 min prior to the experiments. Platelets flowing through the channel were monitored using an inverted light microscope (DMI 6000B, Leica Microsystems) equipped with a digital camera (DFC420, Leica Microsystems).
Platelet aggregation is mediated by αIIbβ3 integrin interactions with fibrinogen and fibrin linking platelets together (Furie et al., J. Clin. Invest. 2005; 115 (12): 3355-3362; and Andrews et al., Thromb Res. 2004; 114:447-453). P-selectin links aggregated platelets together stabilizing clot formation (Merten 2001). Sulfatides stimulate increased levels of both αIIbβ3 integrin and P-selectin expression on platelets (Merten 2005). […]

Human washed platelets = assay: Platelet immunofluorescence analysis (subcellular localization); format: cell-based; conditions: 1.9 μM
Protocol: Washed platelets (50 μl of […] in Tyrode's albumin buffer) were incubated with 1.9 μM of PTB domain constructs for 5 min at room temperature in the presence of 0.25 g/L fibrinogen. Aggregation was initiated by the addition of 10 μM TRAP. Reactions were incubated at room temperature unless otherwise indicated. Platelets were fixed with 0.4 mL of 3.7% formaldehyde in Phosphate Buffered Saline (PBS) for 30 min. Next, 20% goat serum was added to the fixed platelets, and 60% of the total fixed reaction was centrifuged using a Shandon cytospinner onto a Shandon coated cytoslide to achieve the appropriate platelet density for analysis. Slides were then washed twice with PBS for 10 min. Platelets were permeabilized with 0.5% Triton X-100 in PBS for 10 min and then blocked with 20% goat serum in PBS with 0.1% Triton X-100 for 1 h at room temperature. Platelets were washed 3 times with PBS with 0.1% Triton for 10 minutes and further incubated overnight with the anti-Dab2 antibody 1:100 (anti-p96; BD Transduction) in PBS with 0.1% Triton X-100 and 10% goat serum at 4° C. in a humidity chamber. Platelets were then washed and incubated with the anti-mouse Cy-3 conjugated goat antibody 1:250 and Alexa488 conjugated phalloidin (25 μg/mL) in PBS with 0.1% Triton X-100 and 10% goat serum for 2 h. Platelets were washed again and observed on an Olympus IX71 microscope using the Softworx Applied Precision software.
Mean pixel intensity was determined for 400 platelets from four fields each for 3 min and 10 min of treatments by manually drawing circles around individual platelets using the 2D Polygon tool in the Softworx software. For each time point, a threshold of significant mean pixel intensity was defined for the experiment. The percentage of countable platelets to exceed the threshold was calculated for each field and the average of four fields was computed with standard deviation. The ratio of internalization:binding is the quotient of these averages for a treatment.

B1: N-PTB: N-terminal phosphotyrosine binding domain (residues 1-241) of human Disabled-2 (Dab2), expressed as GST-fusion in E. coli (protein)
chain: MSNEVETSATNGQPDQQAAPKAPSKKEKKKGPEKTDEYLLARFKGDGVKYKAKLIGIDDVPDARGDKMSQDSMMKLKGMAARGRSQGQHKQRIWVNISLSGIKIIDEKTGVIEHEHPVNKISFIARDVTDNRAFGYVCGGEGQHQFFAIKTGQQAEPLVVDLKDLFQVIYNVKKKEEEKKKIEEASKAVENGSEALMILDDQTNKLKSGVDQMDLFGDMSTPPDLNSPTESKDILLVDLNS
[1]
  inhibition of sulfatide induced activation (surface P-selectin): remained at ADP stimulated levels
[1]; listed as N-PTB^4M
  inhibition of sulfatide induced activation (surface P-selectin): no inhibition of sulfatide induced activation
[1]; titration 1 nM-1 μM, ADP stimulated platelets, logarithmic curve fit, read-out: IC50, inhibition of sulfatide induced P-selectin marker expression
  IC50: 121 nM
[2]
  inhibition of sulfatide induced expression of αIIbβ3 integrin: inhibition of sulfatide induced expression
[2]; listed as N-PTB^4M
  inhibition of sulfatide induced expression of αIIbβ3 integrin: no inhibition
Washed platelets
  inhibition of sulfatide induced platelet aggregation under flow: returned to the size of untreated platelets
Washed platelets; listed as N-PTB^4M
  inhibition of sulfatide induced platelet aggregation under flow: limited inhibition of platelet aggregate size but not adhesion
Human washed platelets; 3 min after TRAP stimulation
  localization at the platelet surface: clearly localized at the platelet surface
Human washed platelets; 10 min after activation
  internalization: internalized
